Source: article PMC6962038 (Science Advances, 2020)

Assays:
[1] = target: APJ463 chimeric receptor reconstituted in nanodiscs (human, UniProt P35414, C325L | C326M); test: SPR
[2] = target: wild-type human APJ (membrane preparation) (human, UniProt P35414); test: cell-based or functional assay

- Kd [1]: 0.083 nM
- IC50 of antagonism of the action of Apelin 13 on human APJ, cAMP assay [2]: 5.9 nM
B1: single-domain antibody (sdAb) antagonist JN241 (VHH)
VHH: QVQLVESGGGSVQSGGSLTLSCAASGSTYSSHCMGWFRQAPGKEREGVALMTRSRGTSYADSVKGRFTISQDNTKNILYLQMNSLKPEDTAMYYCAAVPRAGIESGAYCKWNMKDSGSWGQGTLVTVSS
